Measured values from the supplement of paper PMC9732359.
± gives the uncertainty stated by the source.

Test: protein stability index of a GFP-peptide fusion (yeast GPS) (PSI 1-4); higher = more stable; sorted into four equal gates, so the index is relative within each strain
Method in brief: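 Yeast carrying a pooled library were grown to mid-log phase in leucine-free medium. Each library plasmid expresses Cherry and has a tiled 17-residue yeast protein peptide fused downstream of GFP. Cells were sorted into four equal gates by GFP/Cherry ratio, and plasmids from each gate were PCR-amplified, Illumina-sequenced and assigned to strains by barcode. Summing, across gates, the read frequency times the gate number gave each peptide's protein stability index.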

In the case of MNFISKEEFIMMVNISV [PCI8], the protein stability index (doa10∆) is reported as 1.41 ± 0.059, the protein stability index (pdr5∆) is reported as 1.25 ± 0.046 and the protein stability index (san1∆) is reported as 1.32 ± 0.16. The protein stability index (ubr1∆) was 1.37 ± 0.063.
Sequence TEIENYLLENNQVGTDE [YDL116W/NUP84] has a protein stability index (doa10∆) of 3.11 ± 0.11, a protein stability index (pdr5∆) of 2.9 ± 0.082 and a protein stability index (san1∆) of 3.39 ± 0.072. It also gave a protein stability index (ubr1∆) of 2.84 ± 0.098.
Work on AGRKFKSRRCDDMLYYI [POP4] yielded a protein stability index (doa10∆) of 2.96 ± 0.094, a protein stability index (pdr5∆) of 3.06 ± 0.094 and a protein stability index (san1∆) of 3.21 ± 0.084. The protein stability index (ubr1∆) was 3.04 ± 0.068.
Work on EFVDDYTVNVVDVFAMP [RPN11] yielded a protein stability index (doa10∆) of 3.08 ± 0.19, a protein stability index (pdr5∆) of 3.01 ± 0.17 and a protein stability index (san1∆) of 2.91 ± 0.12. For the same sequence, the protein stability index (ubr1∆) was 3.13 ± 0.13.
VYEYVIASTLGPSAMRL [RPC82] showed a protein stability index (doa10∆) of 2.38 ± 0.21, a protein stability index (san1∆) of 1.6 ± 0.14 and a protein stability index (ubr1∆) of 1.23 ± 0.097.
Sequence LDPLARVSKDKKSGSLT [FAS2] has a protein stability index (doa10∆) of 3.31 ± 0.1, a protein stability index (pdr5∆) of 3.2 ± 0.096 and a protein stability index (san1∆) of 3.22 ± 0.084. For the same sequence, the protein stability index (ubr1∆) was 3.14 ± 0.16.
TLTELKDALSNSILSVR [SRB2] showed a protein stability index (doa10∆) of 3.29 ± 0.068, a protein stability index (pdr5∆) of 3.38 ± 0.082 and a protein stability index (san1∆) of 3.21 ± 0.049. For the same sequence, the protein stability index (ubr1∆) was 3.37 ± 0.09.
In the case of NTLEFIIEQLSIAAERY [YCG1], the protein stability index (doa10∆) is reported as 2.29 ± 0.052, the protein stability index (pdr5∆) is reported as 2.62 ± 0.072 and the protein stability index (san1∆) is reported as 2.16 ± 0.066. It also gave a protein stability index (ubr1∆) of 2.39 ± 0.036.
KSPSLTAQKYPIYTGDG [YMR153W/NUP53] showed a protein stability index (doa10∆) of 2.33 ± 0.055, a protein stability index (pdr5∆) of 2.19 ± 0.051 and a protein stability index (san1∆) of 2.08 ± 0.069. It also gave a protein stability index (ubr1∆) of 2.01 ± 0.036.
For IATGCKDGRIRIFKITE [YGL100W/SEH1], the protein stability index (doa10∆) was 2.22 ± 0.069, the protein stability index (pdr5∆) was 2.47 ± 0.066 and the protein stability index (san1∆) was 2.21 ± 0.094. For the same sequence, the protein stability index (ubr1∆) was 2.43 ± 0.046.
Work on VSKKVDVRRLKKNVWRS [BRN1] yielded a protein stability index (doa10∆) of 2.54 ± 0.22, a protein stability index (pdr5∆) of 1.33 ± 0.13 and a protein stability index (ubr1∆) of 3.13 ± 0.13.
Sequence MEYHISNTDETKGENYQ [FAS2] has a protein stability index (doa10∆) of 3.03 ± 0.12, a protein stability index (pdr5∆) of 3.22 ± 0.14 and a protein stability index (san1∆) of 2.75 ± 0.2.
KVSSLKMFIQRILAMCV [YCS4] showed a protein stability index (doa10∆) of 2.64 ± 0.069, a protein stability index (pdr5∆) of 2.48 ± 0.061 and a protein stability index (san1∆) of 2.23 ± 0.063. It also gave a protein stability index (ubr1∆) of 2.88 ± 0.057.
In the case of QTAVTCESCSTILCTPT [RPS27A], the protein stability index (doa10∆) is reported as 1.93 ± 0.04, the protein stability index (pdr5∆) is reported as 2.05 ± 0.044 and the protein stability index (san1∆) is reported as 1.91 ± 0.056. For the same sequence, the protein stability index (ubr1∆) was 1.82 ± 0.04.
FGNKPAGSTGFSFGQNN [YGR119C/NUP57] gave a protein stability index (doa10∆) of 1.75 ± 0.089, a protein stability index (pdr5∆) of 1.77 ± 0.085 and a protein stability index (san1∆) of 1.46 ± 0.15. It also gave a protein stability index (ubr1∆) of 1.29 ± 0.28.
ATDLAGPANNPNEFMQF [PRP8] gave a protein stability index (doa10∆) of 3.21 ± 0.063, a protein stability index (pdr5∆) of 3.35 ± 0.059 and a protein stability index (san1∆) of 3.23 ± 0.033. For the same sequence, the protein stability index (ubr1∆) was 3.4 ± 0.05.
For TEIISTLSNGLIASHYG [BRR2], the protein stability index (doa10∆) was 2.55 ± 0.076, the protein stability index (pdr5∆) was 2.79 ± 0.096 and the protein stability index (san1∆) was 2.42 ± 0.1. The protein stability index (ubr1∆) was 2.33 ± 0.062.
TKENGDFTLPEDFAPLL [PRP8] showed a protein stability index (pdr5∆) of 2.78 ± 0.18 and a protein stability index (ubr1∆) of 3.2 ± 0.1.
For KDLEIRKLEISSRFKHR [GAL11], the protein stability index (doa10∆) was 2.87 ± 0.099, the protein stability index (pdr5∆) was 2.76 ± 0.081 and the protein stability index (san1∆) was 3.16 ± 0.13. The protein stability index (ubr1∆) was 2.81 ± 0.053.
Work on DIRDSSCQGNVIYRNSL [YMR129W/POM152] yielded a protein stability index (doa10∆) of 3.5 ± 0.22, a protein stability index (pdr5∆) of 3.21 ± 0.087 and a protein stability index (san1∆) of 3.38 ± 0.06. For the same sequence, the protein stability index (ubr1∆) was 3.37 ± 0.084.
LIELLEKLDVSRSSVCV [YCG1] showed a protein stability index (doa10∆) of 2.44 ± 0.072, a protein stability index (pdr5∆) of 2.32 ± 0.058 and a protein stability index (san1∆) of 2.05 ± 0.08. It also gave a protein stability index (ubr1∆) of 1.88 ± 0.065.
In the case of KTYKEGINKNEEYRKQL [SMC1], the protein stability index (doa10∆) is reported as 3.23 ± 0.16, the protein stability index (pdr5∆) is reported as 2.2 ± 0.084 and the protein stability index (san1∆) is reported as 2.31 ± 0.077. The protein stability index (ubr1∆) was 2.19 ± 0.056.
With LVSRGGCGNTQPTIRKD [RPO21] the protein stability index (doa10∆) was 2.96 ± 0.07, the protein stability index (pdr5∆) was 2.74 ± 0.11 and the protein stability index (san1∆) was 2.83 ± 0.043. It also gave a protein stability index (ubr1∆) of 2.9 ± 0.043.
Sequence LLLSRVRADDLSTRFNI [RRP43] has a protein stability index (doa10∆) of 3.24 ± 0.091, a protein stability index (pdr5∆) of 3.07 ± 0.063 and a protein stability index (san1∆) of 3.02 ± 0.06. It also gave a protein stability index (ubr1∆) of 3 ± 0.049.
Sequence EDEEDDNISSFHSAVEN [YCG1] has a protein stability index (doa10∆) of 3.12 ± 0.069, a protein stability index (pdr5∆) of 3.2 ± 0.095 and a protein stability index (san1∆) of 3.26 ± 0.052. The protein stability index (ubr1∆) was 2.6 ± 0.063.
Sequence PAAANLDALVDCENFFN [YJL039C/NUP192] has a protein stability index (doa10∆) of 2.71 ± 0.085, a protein stability index (pdr5∆) of 2.77 ± 0.08 and a protein stability index (san1∆) of 2.64 ± 0.057. It also gave a protein stability index (ubr1∆) of 2.7 ± 0.093.
Work on TKSMVKIAEQYSKRIEE [RPN11] yielded a protein stability index (doa10∆) of 2.32 ± 0.075, a protein stability index (pdr5∆) of 1.94 ± 0.052 and a protein stability index (san1∆) of 2.03 ± 0.1. The protein stability index (ubr1∆) was 2.28 ± 0.067.
With TSIEKSSEILSYLSNSL [YML103C/NUP188] the protein stability index (doa10∆) was 2.21 ± 0.072, the protein stability index (pdr5∆) was 2.57 ± 0.076 and the protein stability index (san1∆) was 1.49 ± 0.1. It also gave a protein stability index (ubr1∆) of 2.14 ± 0.046.
With MFRYKTNLYKLKEERAI [PUP3] the protein stability index (doa10∆) was 2.87 ± 0.22, the protein stability index (pdr5∆) was 2.67 ± 0.17 and the protein stability index (san1∆) was 1.78 ± 0.17. For the same sequence, the protein stability index (ubr1∆) was 2.1 ± 0.093.
Sequence EFIAHRLGLIPLQSMDI [RPB3] has a protein stability index (doa10∆) of 2.69 ± 0.13, a protein stability index (pdr5∆) of 2.04 ± 0.17 and a protein stability index (san1∆) of 1.92 ± 0.23.
In the case of RLKFGHRLIATHTNLER [SNF2], the protein stability index (doa10∆) is reported as 2.41 ± 0.064, the protein stability index (pdr5∆) is reported as 2.04 ± 0.054 and the protein stability index (san1∆) is reported as 2.29 ± 0.067. The protein stability index (ubr1∆) was 2.5 ± 0.045.
EFEKKLQETLNKSTSSE [YIL149C/MLP2] showed a protein stability index (doa10∆) of 2.95 ± 0.12, a protein stability index (pdr5∆) of 2.66 ± 0.11 and a protein stability index (san1∆) of 3.17 ± 0.14. The protein stability index (ubr1∆) was 3.27 ± 0.15.
In the case of GDDVVNDVQGIDDVQTI [RPP1], the protein stability index (doa10∆) is reported as 3.2 ± 0.15, the protein stability index (pdr5∆) is reported as 3.46 ± 0.14 and the protein stability index (san1∆) is reported as 3.42 ± 0.067. The protein stability index (ubr1∆) was 3.18 ± 0.081.
For RQNKVQHQRIVAFVCSP [RPN10], the protein stability index (doa10∆) was 1.24 ± 0.069, the protein stability index (pdr5∆) was 1.4 ± 0.12 and the protein stability index (ubr1∆) was 1.42 ± 0.12.
Work on LSRAEYDSDSDSSVEDS [LIN1] yielded a protein stability index (doa10∆) of 3.14 ± 0.17, a protein stability index (pdr5∆) of 2.96 ± 0.16 and a protein stability index (san1∆) of 2.87 ± 0.085. The protein stability index (ubr1∆) was 3.16 ± 0.084.
For KHSVTEYIFEAHEIIKR [CDC53], the protein stability index (doa10∆) was 2.32 ± 0.067, the protein stability index (pdr5∆) was 1.87 ± 0.049 and the protein stability index (san1∆) was 2.68 ± 0.075. For the same sequence, the protein stability index (ubr1∆) was 2.58 ± 0.051.
For QLEKKIRFVCLSNCLAN [BRR2], the protein stability index (doa10∆) was 1.82 ± 0.065, the protein stability index (pdr5∆) was 1.32 ± 0.048 and the protein stability index (san1∆) was 1.31 ± 0.099. It also gave a protein stability index (ubr1∆) of 1.63 ± 0.045.
In the case of LRKLKKMNNKPERFMVF [RPC53], the protein stability index (doa10∆) is reported as 3.19 ± 0.099, the protein stability index (pdr5∆) is reported as 3.35 ± 0.14 and the protein stability index (san1∆) is reported as 3.03 ± 0.099. For the same sequence, the protein stability index (ubr1∆) was 3.18 ± 0.14.
For EREIKRRKFDPSSSENV [UBP6], the protein stability index (doa10∆) was 3.51 ± 0.078, the protein stability index (pdr5∆) was 3.37 ± 0.071 and the protein stability index (san1∆) was 3.14 ± 0.065. It also gave a protein stability index (ubr1∆) of 3.33 ± 0.13.
For IEDPNLSSNITFDGKPT [YMR153W/NUP53], the protein stability index (doa10∆) was 3.02 ± 0.069, the protein stability index (pdr5∆) was 3.06 ± 0.056 and the protein stability index (san1∆) was 3.12 ± 0.043. For the same sequence, the protein stability index (ubr1∆) was 3.17 ± 0.05.
Work on LISRLCPNSTGAELRSV [RPT1] yielded a protein stability index (doa10∆) of 1.85 ± 0.043, a protein stability index (pdr5∆) of 1.77 ± 0.047 and a protein stability index (san1∆) of 1.84 ± 0.073. It also gave a protein stability index (ubr1∆) of 1.73 ± 0.042.
AEEIGVEHLLRDVRDQA [RPN8] showed a protein stability index (doa10∆) of 3.2 ± 0.14 and a protein stability index (san1∆) of 2.96 ± 0.15.
